In the nanobody polyreactivity screen of Harvey et al. (2022):

Assay: yeast display, Sf9 membrane polyspecificity reagent, FACS + sequencing; frameworks hold sequencing errors
Method in brief: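 Nanobodies came from a synthetic yeast display library in Saccharomyces cerevisiae BJ5465, induced with galactose for 36–48 hours and stained for 1 hour at 4 °C with 10% biotinylated, detergent-solubilized Sf9 membrane reagent. Cells were enriched on streptavidin microbeads and then FACS-sorted, with low and high (top ~1%) gates set on anti-HA fluorescence for expression and streptavidin fluorescence for reagent binding. Each polyreactivity label reflects the gate a clone came from. Genes were amplified by colony PCR, sequenced by MiSeq 2 × 250 and filtered by CDR length.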

Sequence | polyreactivity (PSR sort gate)
QVPLVESGGGLVQAGGSLRLSCAASGSICGGYAMGWYRQAPGKERELVAGITYSGDSTYYADSVKGRFTISRDNAKNTVYLQMNSLKPEDTAGYYCNADQRVDHDDFDYWGQGTQVTVSS | low polyreactivity
QVQLVESGGGLVQAGGSIRLSCAASGFTIFLNAMGWYRQAPGKERELVAAITVSGSSTYYADSVKGRFTISRDNAKNTVYLQMNSLKPEETAVYYCNAEIYSPYYTYDYWGQGTQVTVSS | low polyreactivity
QVQLVESGGGLVQAGGSLRISCAAYGRIFWWYAMGWYRQAPGKERELVASIRYGGGSTYYADSVKGRFTISRDNAKNTVYLQMNSLKPEDTAVYYCAARFKRHGRSDYWGQGTQVTVSS | high polyreactivity
QVQLVESGGGLVQAGGSLRLSCAASGSIFRYNAMGWYIQAPGKERELVAAISWNGARTYYADSVKGRFTISRDNAKNTVYLQMNSLKPEDTAVYYCNAGTFTRRRGLDYWGQGTQVTVSS | low polyreactivity
QVQLVESGGGLVQAGGSLRLSCAASGITFGAYAMGWYRQAPGKERELVAVITRGADTYYADSVKGRFTISRDNAKNTVYLQMNSLKPEETAVYYCAAQIDLPYYYGSDDDDYWGQGTQVTVSS | high polyreactivity
QVQLVESGGGLVQAGGSLRLSCAASGSTFTRNTMGWYRQAPGKERELVAVISRRGGSTYYADSVKGRFTISRDNAKNTVYLQMNSLKPEDTAVYYCNTAAYRLQYEYWGQGTQVTVSS | high polyreactivity
QVQLVESGGGLVQAGGSLRLSCAASGIIFRDYAMGWYRQAPGKERELVAAINLDGTSTYYADSVKGRFTISRDNAKKTVYLQMNSLKPEDTAVYYCAAEYDNADYINYFLDMYYWGQGTQVTVSS | low polyreactivity
QVHLVESGGGLVQAGASLRLSCAASGRIFYKYAMGWYRQAPGKERELVAAISYRGGSTYYADSVKGRFTISRDNAKNSVYLQMKSLKPEDNAVYYCAADRWYYSVSTKSDSWGQGTQVTVSS | high polyreactivity
QVQLVESGGGLVQAGGSLRLSCAASGRIIAYYAMGWSRQAPGKERELVAAINWNGGSTYYADSVKGRFTISRDNAKNTVYLQMNSLKPEDTAVYYCNAGRTYTALNGDYWGQGTQVTLSS | high polyreactivity
QDQLVESGGGLVQAGGSLRLSSAASGRIFKRYAMGWYIQAPGKERELVAAITYNSGSTYYADSVKGRFTISRDNAKNTVYLQMNSLKPEDTAVFYCAAEKWSDQSPRGDYWGQGTQVTVSS | low polyreactivity
QVQLVESGGGLVQAGGSLRLSCAASGITFGANTMGWYRQAPGKERELVAAITISGGITHYADSVKGRFTISRDNAKNTVYLQMNRLKPEDTAVYYCAAGAYWRLYPYRQRNGGRMYYWGQGTQVTVSS | low polyreactivity
QVQLVESGGGLVQAGGSLRLSCAASGSIFRYYAKGWSRQAPGKERELVAAISRSGGSTYYADSVKGRFTISRDNAKNTVYLQMKSLKPEDTAVYYCAAEYRVRAQGYVYWGQGTQVTVSS | high polyreactivity
QVQLVESGGGLVQAGGSLRLSCAASGSILLWNTMGWYRQAPGKERELVADIRLSASSTYYSDSVKGRITISRDNAKNTVYLQMNSLKPEDTAVSYSAADEYTPDYGQGYDYWGQGTQVTVSS | low polyreactivity
QVQLVESGGGLVQAGCSLRLICAASGYIFVIYAMGWNRQAPGKERELVAAISSSGAGTYYADSVKGRFTISRDNAKNTVYLQMNSLKPEDTAVYYCAASESAVFDGYDYWGQGTQVTVSS | high polyreactivity
QVQLVESGGGLDQAGGSLRLSCAASGFIFNKYALGRSRQAPGTEREFVATIRRDGSTNYADSVKGRFTISRDNAKNTVYLQMNSLKPEDTAVYSCAKRPWYHADWWDDHWGQGTQVTVSS | high polyreactivity
QVQLVESGGGLVQAGGSLRLSCAASGNIFYVYVMGWYRQAPGKERELVASITSGASTYYADSVKGRFTISRDNAKNTVYLQMNSLKPEDTAVYYCAAEALGGAGDYSTLYIYDYWGQGTQVTVSS | low polyreactivity
QVQLVESGGGLVQAGGSLRLSCAASGSTFVPNDMGWYRQAPGKEMELVAGISSGGGTYADSVKGRFTISRDNAKNTVYLQLNSLKPVDTAVYYCNALHAYYVLTPYDYWGQGTQVTVSS | low polyreactivity
QVQLVESGGGFVQAGGSLRLSCASSGRTFRLYAMGWYRQAPGKERELVDVIRSGDSTNYADSVKGRFTISSDNAKNTVYLQMNSVKPEDTAVYYCAADVLYYYGKYDYWGQGTQVTVSS | high polyreactivity
QVQLVESGGGLVQGGGSLRLSCAASGNILRIYAMGWYRQAPGKEREFVAAIRQSDGRTYYADSVKGRFTISRDNAKNTVYLQMNSLKPEDTSVYYCAADVYQEYDYWGQGTQVTVSS | high polyreactivity
QVQLVESGGGLVQAGGSLRLSCAASGSTFYVYAMGSYRQAPGKERELVAAITRGGSTYYADSVKARFTISRDNAKNTVYLQMNSLKPEDTAVYYCAKYLTGAADLVPEYDYWGQGTQVTVSS | low polyreactivity
QVQLVESGGGLVQAGGRLRLSCAASGIIFASNAMGWYCQAPGKERELVAAISRSGGRTYYADSVKGRFTISRDNAKNTVYLQMNSLKPEDTAVYYCAILARSGTLPYYYWGQGTQVNVSS | high polyreactivity
QVQLVESGGGLVQAGCSLRLSCAASGRIFYYYAMGWYRQAPGKERELVADITWSGGSTYYADSVKGRFTISRDNAKNTVYLQMNSLKPEDTAVYYCNAVYFNYLLEYDYWGQGTQVTVSS | high polyreactivity
QVQLVESGGGLVQAGGSLRLSCAASGFTFQRYAMGWYRQAPGKERELVAAISVRGTRTYYADSVKGRFTISRDNAMNTVYLQMNSLKPEDTAVYYCNADWERDVQDDYWGQGTQVTVSS | high polyreactivity
QVQLVESGGGLVQAGGSLRLSCAASGSIFTYYTMGWYRQAPGKERELVAAIRWSAGRTYYADSVKGRFTISRDNAKNTVYLQMNSLKPEDTAVYYCAAAERLRHGLKFDYWGQGTQVTVSS | high polyreactivity
QVQLVESGGGLVQAGGSLRLSCASSGIIFNVYAMGWYRQAPGKERELVAAISSTSSTYADSVKGRFTISRDNAKNTVYLQMNSLKPEDTAVYYCNTDYSDGYPAFAYWGQGTQVTVSS | low polyreactivity
QVQLVESGGGLVQAGGSLRLSCAASGRIFSYYAMGWYRQAPGKERELVAVISRRGDNTYYADSVKGRFTISRDNAKNTVYLQMNSLKPEDTAVYYCAAYSWYAKDFDYWGQGTQVTVSS | high polyreactivity
QVQLVESGGGLVQAGGSLRLSCAASGSTFDVYAMGWYRQAPGKERELVATITGSGGSTYYADSVKGRFTISRDNAKNTVYLQMNSLKPEDTAVYYCAARYPVSGGYDYWGQGTQVTVSS | low polyreactivity
QVQLVESGGGLVQAGGSLRLSCAASGRIFKGYAMGWYRQAPGKERELVAAITWRGGTTYYADSVKGRFTISRDNAKNTVYLQMNSLKPEDTAVYYCATTRYPRSYQEFGYWGQGTQVTVSS | high polyreactivity
QVQLVESGGGLVQAGGSLRLSCAASGIIFSGYAMGWYRQAPGKERELVASIRSGSNTYYADSVKGRFTISRDNAKNTVYLQMNSLKPEDTAVYYCAARVVPATFRFIRYPHPYYYWGQGTQVTVSS | low polyreactivity
QVQLVESGGGLVQAGGSLRLSCAASGSTFGYYAMGWYRQAPGKERELVAAISKRGGSTYYADSVKGRFTISRDNAKNTVYLQMNSLKPEDTAVYYCAAAPYKYPGDYWGQGTQVTVSS | high polyreactivity
